How the values were obtained:
Assay in all cases: ELISA; PEPSCAN ELISA; biotinylated EID2 peptides (400 nM) on streptavidin-coated plates; His-S-MAGEC2(129-339) 200–400 nM, 4°C overnight; anti-His detection
Details in all cases: both partners purified
EID2 peptide #1 (Q197A) = biological target: T1, EID2 peptide #1 (Q197A) (human, Q197A (stands in the printed letters), biotin, linked via the SGSG spacer)
T1 construct: source: synthetic peptide (Mimotopes)
T1 peptide: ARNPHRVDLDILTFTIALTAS

EID2 peptide #2 (R198A) = biological target: T2, EID2 peptide #2 (R198A) (human, R198A (stands in the printed letters), biotin, linked via the SGSG spacer)
T2 construct: source: synthetic peptide (Mimotopes)
T2 peptide: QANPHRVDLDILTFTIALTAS

EID2 peptide #6 (R202A) = biological target: T3, EID2 peptide #6 (R202A) (human, R202A (stands in the printed letters), biotin, linked via the SGSG spacer)
T3 construct: source: synthetic peptide (Mimotopes)
T3 peptide: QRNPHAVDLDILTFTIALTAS

EID2 peptide #9 (L205A) = biological target: T4, EID2 peptide #9 (L205A) (human, L205A (stands in the printed letters), biotin, linked via the SGSG spacer)
T4 construct: source: synthetic peptide (Mimotopes)
T4 peptide: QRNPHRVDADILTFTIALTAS

EID2 peptide #10 (D206A) = biological target: T5, EID2 peptide #10 (D206A) (human, D206A (stands in the printed letters), biotin, linked via the SGSG spacer)
T5 construct: source: synthetic peptide (Mimotopes)
T5 peptide: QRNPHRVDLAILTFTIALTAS

EID2 peptide #11 (I207A) = biological target: T6, EID2 peptide #11 (I207A) (human, I207A (stands in the printed letters), biotin, linked via the SGSG spacer)
T6 construct: source: synthetic peptide (Mimotopes)
T6 peptide: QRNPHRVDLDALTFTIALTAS

EID2 peptide #12 (L208A) = biological target: T7, EID2 peptide #12 (L208A) (human, L208A (stands in the printed letters), biotin, linked via the SGSG spacer)
T7 construct: source: synthetic peptide (Mimotopes)
T7 peptide: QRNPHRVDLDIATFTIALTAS

EID2 peptide #14 (F210A) = biological target: T8, EID2 peptide #14 (F210A) (human, F210A (stands in the printed letters), biotin, linked via the SGSG spacer)
T8 construct: source: synthetic peptide (Mimotopes)
T8 peptide: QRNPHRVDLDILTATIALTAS

EID2 peptide #16 (I212A) = biological target: T9, EID2 peptide #16 (I212A) (human, I212A (stands in the printed letters), biotin, linked via the SGSG spacer)
T9 construct: source: synthetic peptide (Mimotopes)
T9 peptide: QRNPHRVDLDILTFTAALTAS

EID2 peptide #17 (L214A) = biological target: T10, EID2 peptide #17 (L214A) (human, L214A (stands in the printed letters), biotin, linked via the SGSG spacer)
T10 construct: source: synthetic peptide (Mimotopes)
T10 peptide: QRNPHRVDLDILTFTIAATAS

EID2 peptide #18 (T215A) = biological target: T11, EID2 peptide #18 (T215A) (human, T215A (stands in the printed letters), biotin, linked via the SGSG spacer)
T11 construct: source: synthetic peptide (Mimotopes)
T11 peptide: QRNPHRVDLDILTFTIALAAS

EID2 peptide #19 (S217A) = biological target: T12, EID2 peptide #19 (S217A) (human, S217A (stands in the printed letters), biotin, linked via the SGSG spacer)
T12 construct: source: synthetic peptide (Mimotopes)
T12 peptide: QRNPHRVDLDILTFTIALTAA

B1: His-S-MAGEC2(129-339) (domain or fragment, human, UniProt Q9UBF1 129-339, looked up)
chain: GLPDSESSFTYTLDEKVAELVEFLLLKYEAEEPVTEAEMLMIVIKYKDYFPVILKRAREFMELLFGLALIEVGPDHFCVFANTVGLTDEGSDDEGMPENSLLIIILSVIFIKGNCASEEVIWEVLNAVGVYAGREHFVYGEPRELLTKVWVQGHYLEYREVPHSSPPYYEFLWGPRAHSESIKKKVLEFLAKLNNTVPSSFPSWYKDALKD
notes: source: E. coli C41, purified (His-TRAP column, FPLC)
percent of wt binding affinity (EID2 peptide #1 (Q197A)): ~30 % of wt
percent of WT affinity (EID2 peptide #2 (R198A)): < 20 % of WT affinity
percent of WT affinity (EID2 peptide #6 (R202A)): < 20 % of WT affinity
percent of wt binding affinity (EID2 peptide #9 (L205A)): ~30 % of wt
percent of wt binding affinity (EID2 peptide #10 (D206A)): ~30 % of wt
percent of wt binding affinity (EID2 peptide #11 (I207A)): ~30 % of wt
percent of wt binding affinity (EID2 peptide #12 (L208A)): ~30 % of wt
percent of WT affinity (EID2 peptide #14 (F210A)): < 20 % of WT affinity
percent of WT affinity (EID2 peptide #16 (I212A)): < 20 % of WT affinity
percent of WT affinity (EID2 peptide #17 (L214A)): < 20 % of WT affinity
percent of wt binding affinity (EID2 peptide #18 (T215A)): ~30 % of wt
percent of wt binding affinity (EID2 peptide #19 (S217A)): ~30 % of wt

Source: paper PMC3335016, “Analysis of the Nse3/MAGE-Binding Domain of the Nse4/EID Family Proteins” (PLoS ONE, 2012)
